From patent US20250076311A1 (Chugai, published 2025)
Where a chain is given by its changes, count along the chain named. In names and notes the source's numbering stands.

T1: human FcγRIIb extracellular domain with C-terminal His-tag (human, UniProt P31994 43-217)
T1 construct: also called human FcgRIIb; not shown: His-tag added to C-terminus
T1 sequence: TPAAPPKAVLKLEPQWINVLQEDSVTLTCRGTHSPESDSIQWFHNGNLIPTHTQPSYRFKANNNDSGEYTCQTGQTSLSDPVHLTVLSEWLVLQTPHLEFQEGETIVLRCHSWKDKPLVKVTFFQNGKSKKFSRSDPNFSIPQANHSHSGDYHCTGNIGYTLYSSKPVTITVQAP

T2: cynomolgus monkey FcγRIIa3 extracellular domain with C-terminal His-tag (cynomolgus monkey)
T2 construct: also called cyno FcgRIIa3; cynoFcγRIIa3; not shown: His-tag added to C-terminus
T2 chain: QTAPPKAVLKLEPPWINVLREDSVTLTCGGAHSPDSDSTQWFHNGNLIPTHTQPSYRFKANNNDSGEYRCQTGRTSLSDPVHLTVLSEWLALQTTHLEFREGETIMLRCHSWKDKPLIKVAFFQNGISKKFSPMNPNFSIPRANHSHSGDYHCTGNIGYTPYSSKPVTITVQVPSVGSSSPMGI

T3: cynomolgus monkey FcγRIIa2 extracellular domain with C-terminal His-tag (cynomolgus monkey)
T3 construct: also called cyno FcgRIIa2; cynoFcγRIIa2; not shown: His-tag added to C-terminus
T3 chain: T2 chain with I127K, K130N, P133H, R142Q

T4: human FcγRIIaR extracellular domain with C-terminal His-tag (human, UniProt P12318 34-217)
T4 construct: also called human FcgRIIaR; FcγRIIa (type R); not shown: His-tag added to C-terminus
T4 chain: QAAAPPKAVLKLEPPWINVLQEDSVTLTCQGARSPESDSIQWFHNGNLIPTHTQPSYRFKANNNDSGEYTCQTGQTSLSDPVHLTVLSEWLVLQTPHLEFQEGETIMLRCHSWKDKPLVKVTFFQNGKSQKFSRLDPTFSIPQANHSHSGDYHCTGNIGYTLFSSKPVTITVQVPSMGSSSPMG

T5: cynomolgus monkey FcγRIIb extracellular domain with C-terminal His-tag (cynomolgus monkey)
T5 construct: also called cyno FcgRIIb; cynoFcγRIIb; not shown: His-tag added to C-terminus
T5 chain: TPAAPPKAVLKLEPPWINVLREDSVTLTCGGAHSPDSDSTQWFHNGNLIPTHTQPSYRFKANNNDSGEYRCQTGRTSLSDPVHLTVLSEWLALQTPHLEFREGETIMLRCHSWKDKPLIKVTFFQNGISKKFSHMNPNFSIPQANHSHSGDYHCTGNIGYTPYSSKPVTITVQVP

T6: cynomolgus monkey FcγRIIa3 extracellular domain with C-terminal His-tag (cynomolgus monkey)
T6 construct: also called cyno FcgRIIa3; cynoFcγRIIa3
T6 chain: T2 chain

T7: human FcγRIIaR extracellular domain, His-tagged (human, UniProt P12318 34-217)
T7 construct: also called human FcgRIIaR; FcγRIIa type R
T7 chain: T4 chain

T8: human FcγRIIb extracellular domain, His-tagged (human, UniProt P31994 43-217)
T8 construct: also called human FcgRIIb
T8 sequence: T1 sequence

T9: human FcγRIIaH extracellular domain, His-tagged (human, UniProt P12318 34-217)
T9 construct: also called human FcgRIIaH; FcγRIIa type H
T9 sequence: T4 chain with R134H

B1: M103205H795-MY212/M103202L889-SK1 (antibody, human IgG1, kappa, name in EU numbering)
heavy: QVTLKESGPVLVKPTETLTLTCTVSGIDLSHDDISWVRQAPGKGLEWVGIISYAGSTYYASWAKGRLTISKDTSKNQVVLTMTNMDPVDTATYYCARGVPAYSHGGDLWGQGTLVTVSSASTKGPSVFPLAPSSKSTSGGTAALGCLVKDYFPEPVTVSWNSGALTSGVHTFPAVLQSSGLYSLSSVVTVPSSSLGTQTYICNVNHKPSNTKVDKKVEPKSCDKTHTCPPCPAPELLNGPVVFLFPPKPKDTLMISRTPEVTCVVVDVSDEDPEVKFNWYVDGVEVHNAKTKPREELYNSTYRVVSVLTVLHQDWLNGKEYKCKVSNTALPKPIEKTISKAKGQPREPQVYTLPPSREEMTKNQVSLTCLVKGFYPSDIAVEWESNGQPENNYKTTPPVLDSDGSFFLYSKLTVDKSRWQQGNVFSCSVMHEALHNHYTQKSLSLSP
light: DIVMTQSPATLSLSPGERATLSCTSSQSVYHANWLSWFQQKPGQPPKLLIYWASTLAYGVPSRFSGSGSGTDFTLTISSLQPEDAATYYCAGGYGGGRYAFGQGTKVEIKRTVAAPSVFIFPPSDEQLKSGTASVVCLLNNFYPREAKVQWKVDNALQSGNSQESVTEQDSKDSTYSLSSTLTLSKADYEKHKVYACEVTHQGLSSPVTKSFNRGEC
notes: substitutions in EU numbering, introduced into M103205H795-SG1
B2: M103205H795-MY176/M103202L889-SK1 (antibody, human IgG1, kappa, name in EU numbering)
heavy: B1 heavy with V241S, D270E, L297Q, T328K, K332A, P398L
light: B1 light
notes: EU numbering
B3: M103205H795-MY183/M103202L889-SK1 (antibody, human IgG1, kappa, name in EU numbering)
heavy: B1 heavy with V241S, D270E, L297Q, T328K, K332A, P398W
light: B1 light
notes: EU numbering
B4: M103205H795-MY171/M103202L889-SK1 (antibody, human IgG1, kappa, name in EU numbering)
heavy: B1 heavy with V241S, D270E, L297Q, T328K, K332A, P398F
light: B1 light
notes: EU numbering
B5: M103205H795-MY434/M103202L889-SK1 (antibody, human IgG1, kappa, name in EU numbering)
heavy: B1 heavy with L237W, V241S, L297Q, T328K
light: B1 light
notes: as for B1
B6: M103205H795-MY175/M103202L889-SK1 (antibody, human IgG1, kappa, name in EU numbering)
heavy: B1 heavy with V241S, D270E, L297Q, T328K, K332A, P398K
light: B1 light
notes: EU numbering
B7: M103205H795-MY168/M103202L889-SK1 (antibody, human IgG1, kappa, name in EU numbering)
heavy: B1 heavy with V241S, D270E, L297Q, T328K, K332A, P398A
light: B1 light
notes: EU numbering
B8: M103205H795-MY200/M103202L889-SK1 (antibody)
heavy: B1 heavy with D270E, L297Q, T328K
light: B1 light
B9: M103205H795-MY440/M103202L889-SK1 (antibody, human IgG1, kappa, name in EU numbering)
heavy: B1 heavy with L237W, V241S, T328K
light: B1 light
notes: as for B1
B10: M103205H795-MY052/M103202L889-SK1 (antibody, human IgG1, kappa, name in EU numbering)
heavy: B1 heavy with V241S, D270E, L297Q, T328K, K332A, P398M
light: B1 light
notes: as for B1
B11: M103205H795-MY468/M103202L889-SK1 (antibody)
chain 1: B1 heavy with A233N, N238T, V241S, L297Q, T328K
chain 2: B1 light
B12: M103205H795-MY452/M103202L889-SK1 (antibody, human IgG1, kappa)
heavy: B1 heavy with P234Q, N238T, V241S, L297Q, T328K
light: B1 light
notes: Substitutions in EU numbering on SG1
B13: GpH7-B3 G236N / GpL16-k0 (antibody, human IgG1, kappa)
heavy: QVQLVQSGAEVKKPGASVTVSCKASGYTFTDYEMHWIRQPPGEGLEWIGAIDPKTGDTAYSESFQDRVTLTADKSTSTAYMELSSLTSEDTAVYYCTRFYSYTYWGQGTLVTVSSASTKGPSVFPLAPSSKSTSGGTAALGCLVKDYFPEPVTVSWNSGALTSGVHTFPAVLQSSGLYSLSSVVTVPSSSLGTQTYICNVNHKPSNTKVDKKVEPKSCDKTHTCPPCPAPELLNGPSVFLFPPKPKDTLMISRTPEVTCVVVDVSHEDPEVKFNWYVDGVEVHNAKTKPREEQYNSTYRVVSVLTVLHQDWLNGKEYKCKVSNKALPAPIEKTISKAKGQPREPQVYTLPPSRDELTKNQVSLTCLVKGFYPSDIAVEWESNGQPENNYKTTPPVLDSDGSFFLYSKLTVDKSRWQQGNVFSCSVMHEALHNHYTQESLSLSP
light: DIVMTQSPLSLPVTPGEPASISCQASESLVHSNRNTYLHWYLQKPGQSPQLLIYKVSNRFSGVPDRFSGSGSGTDFTLKISRVEAEDVGVYYCSQNTHVPPTFGQGTKVEIERTVAAPSVFIFPPSDEQLKSGTASVVCLLNNFYPREAKVQWKVDNALQSGNSQESVTEQDSKDSTYSLSSTLTLSKADYEKHKVYACEVTHQGLSSPVTKSFNRGEC
notes: also called B3 variant G236N
B14: GpH7-B3 P238E / GpL16-k0 (antibody, human IgG1, kappa)
heavy: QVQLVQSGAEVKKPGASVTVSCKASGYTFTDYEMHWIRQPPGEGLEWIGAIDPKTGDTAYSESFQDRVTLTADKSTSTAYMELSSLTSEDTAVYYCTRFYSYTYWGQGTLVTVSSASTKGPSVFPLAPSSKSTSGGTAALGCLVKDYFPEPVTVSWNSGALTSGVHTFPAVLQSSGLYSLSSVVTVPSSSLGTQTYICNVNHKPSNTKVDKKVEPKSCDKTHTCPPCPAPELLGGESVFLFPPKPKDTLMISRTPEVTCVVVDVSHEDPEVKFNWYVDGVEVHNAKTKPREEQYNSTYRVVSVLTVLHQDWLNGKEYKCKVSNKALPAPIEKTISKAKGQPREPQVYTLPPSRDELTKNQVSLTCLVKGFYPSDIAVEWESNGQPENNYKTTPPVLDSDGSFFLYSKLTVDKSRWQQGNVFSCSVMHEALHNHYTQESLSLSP
light: B13 light
notes: also called B3 variant P238E
B15: GpH7-B3 G237D / GpL16-k0 (antibody, human IgG1, kappa)
heavy: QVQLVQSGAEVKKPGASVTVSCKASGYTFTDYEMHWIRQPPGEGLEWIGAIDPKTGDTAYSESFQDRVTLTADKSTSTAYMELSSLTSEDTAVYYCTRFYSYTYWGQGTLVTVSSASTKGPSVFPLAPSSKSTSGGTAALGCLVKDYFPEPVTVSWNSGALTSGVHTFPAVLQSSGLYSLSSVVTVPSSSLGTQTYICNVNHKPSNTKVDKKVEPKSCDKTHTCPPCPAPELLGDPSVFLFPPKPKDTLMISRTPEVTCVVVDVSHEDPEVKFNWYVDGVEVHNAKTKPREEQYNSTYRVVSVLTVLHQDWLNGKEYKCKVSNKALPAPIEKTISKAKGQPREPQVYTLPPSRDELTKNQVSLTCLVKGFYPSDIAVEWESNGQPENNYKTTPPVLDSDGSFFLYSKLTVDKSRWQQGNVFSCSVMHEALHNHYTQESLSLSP
light: B13 light
notes: also called B3 variant G237D
B16: GpH7-B3 N325L / GpL16-k0 (antibody, human IgG1, kappa)
heavy: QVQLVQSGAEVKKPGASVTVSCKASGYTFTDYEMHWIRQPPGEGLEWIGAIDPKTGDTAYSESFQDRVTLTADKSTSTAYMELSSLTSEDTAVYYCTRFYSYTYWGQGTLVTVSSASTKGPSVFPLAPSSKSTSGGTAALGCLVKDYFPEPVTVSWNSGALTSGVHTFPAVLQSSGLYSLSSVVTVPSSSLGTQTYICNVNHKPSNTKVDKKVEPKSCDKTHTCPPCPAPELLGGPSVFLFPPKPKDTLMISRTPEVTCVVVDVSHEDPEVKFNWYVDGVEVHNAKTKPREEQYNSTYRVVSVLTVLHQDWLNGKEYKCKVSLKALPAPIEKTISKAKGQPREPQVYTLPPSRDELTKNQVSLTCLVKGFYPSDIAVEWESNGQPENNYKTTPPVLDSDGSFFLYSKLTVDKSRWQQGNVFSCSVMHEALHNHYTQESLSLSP
light: B13 light
notes: also called B3 variant N325L
B17: GpH7-B3 A327I / GpL16-k0 (antibody, human IgG1, kappa)
heavy: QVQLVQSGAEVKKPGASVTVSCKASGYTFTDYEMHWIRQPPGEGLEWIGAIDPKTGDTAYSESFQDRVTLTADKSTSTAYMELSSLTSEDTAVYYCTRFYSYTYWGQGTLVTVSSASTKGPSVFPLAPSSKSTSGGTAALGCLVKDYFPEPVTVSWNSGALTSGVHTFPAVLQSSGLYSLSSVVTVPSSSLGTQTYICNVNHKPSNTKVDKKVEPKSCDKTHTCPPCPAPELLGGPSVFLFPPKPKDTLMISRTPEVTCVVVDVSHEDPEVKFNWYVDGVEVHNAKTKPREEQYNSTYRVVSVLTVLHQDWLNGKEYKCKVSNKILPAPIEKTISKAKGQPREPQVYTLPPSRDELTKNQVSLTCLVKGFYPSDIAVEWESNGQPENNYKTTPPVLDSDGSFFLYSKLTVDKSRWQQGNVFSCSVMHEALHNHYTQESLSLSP
light: B13 light
notes: also called B3 variant A327I

target: T1, human FcγRIIb extracellular domain with …; assay: SPR Biacore, antibody captured, FcgR analyte

Binder	KD fold (SG1 = 1)	Kd
B1	7.5 fold	
B2	6.5 fold	700 nM
B3	4.7 fold	
B4		1200 nM
B5	3.5 fold	

Target: T2, cynomolgus monkey FcγRIIa3 …
Assay: SPR Biacore, antibody captured, FcgR analyte

Binder	Kd	KD fold (SG1 = 1)
B2	6000 nM	
B4	9200 nM	1.5 fold
B6		2.3 fold
B7	1000 nM	

target: T10, human FcγRIIIaV extracellular domain with C-terminal His-tag (human, UniProt P08637 17-208); assay: SPR Biacore, antibody captured, FcgR analyte
T10 construct: also called human FcgRIIIaV; not shown: His-tag added to C-terminus
T10 sequence (P08637 17-208 F176V): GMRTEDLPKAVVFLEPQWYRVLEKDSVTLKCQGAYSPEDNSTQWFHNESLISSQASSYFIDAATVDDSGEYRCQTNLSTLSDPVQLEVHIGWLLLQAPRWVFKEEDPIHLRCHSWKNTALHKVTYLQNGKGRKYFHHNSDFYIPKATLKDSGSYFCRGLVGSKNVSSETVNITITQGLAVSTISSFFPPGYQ

Binder	KD fold (SG1 = 1)	Kd
B1	0.17 fold	
B2		6200 nM
B3		7700 nM
B8	0.09 fold	
B9	0.03 fold	

Target: T3, cynomolgus monkey FcγRIIa2 …
Assay: SPR Biacore, antibody captured, FcgR analyte

Binder	KD fold (SG1 = 1)	Kd
B3	2.6 fold	
B4		2300 nM

target: T11, cynomolgus monkey FcγRIIIaS extracellular domain with C-terminal His-tag (cynomolgus monkey, UniProt A3RFZ7 21-206 (rhesus entry)); assay: SPR Biacore, antibody captured, FcgR analyte
T11 construct: also called cyno FcgRIIIaS; cynoFcγRIIIaS; not shown: His-tag added to C-terminus

Binder	KD fold (SG1 = 1)	Kd
B10	0.24 fold	1500 nM
B1	0.14 fold	
B2	0.16 fold	2200 nM
B3	0.1 fold	3500 nM
B4	0.11 fold	3300 nM
B5	0.03 fold	
B8	0.08 fold	
B9	0.04 fold	
B6	0.14 fold	2600 nM
B7	0.08 fold	4500 nM

Target: T4, human FcγRIIaR extracellular domain …
Assay: SPR Biacore, antibody captured, FcgR analyte

Binder	KD fold (SG1 = 1)	Kd
B10	0.1 fold	
B2	0.1 fold	
B4		2300 nM
B5	0.8 fold	
B6		1500 nM
B7		2800 nM

Target: T5, cynomolgus monkey FcγRIIb extracellular …
Assay: SPR Biacore, antibody captured, FcgR analyte

Binder	KD fold (SG1 = 1)	Kd
B10	3.5 fold	
B2	1 fold	
B4	1.5 fold	9800 nM
B9	3.9 fold	
B7		12 nM

Target: T6, cynomolgus monkey FcγRIIa3 …
Assay: SPR (Biacore), KD of SG1 / KD of variant
Description: The kinetic analysis of interactions between these antibodies and FcγR was carried out using BIACORE® T200 or BIACORE® 4000 (GE Healthcare). HBS-EP+ (GE Healthcare) was used as the running buffer, and the measurement temperature was set to 25° C. […] After the measurement, the antibody captured on the chip was washed off by allowing reaction with 10 mM glycine-HCl, pH1.5 and 25 mM NaOH so that the chip was regenerated and used repeatedly. The sensorgrams obtained as measurement results were analyzed by the 1:1 Langmuir binding model using the BIACORE® Evaluation Software to calculate the binding rate constant ka (L/mol/s) and dissociation rate constant kd (1/s), and the dissociation constant KD (mol/L) was calculated from these values. […] Regarding such interactions, KD values were calculated using the following 1:1 binding model described in BIACORE® T100 Software Handbook BR1006-48 Edition AE.

Binder	KD fold (SG1 = 1)
B11	3.5 fold
B12	2.6 fold

Target: T7, human FcγRIIaR extracellular domain, …
Assay: SPR (Biacore), 25C, FcgR bound per antibody captured

Binder	Binding to human FcgRs (parent B3 = 100)
B13	81
B14	2
B15	0
B16	13
B17	12

target: T12, human FcγRIIIaV extracellular domain, His-tagged (human, UniProt P08637 17-208); assay: as above
T12 construct: also called human FcgRIIIaV
T12 sequence (P08637 17-208 F176V): as above

Binder	Binding to human FcgRs (parent B3 = 100)
B14	1
B15	0
B16	0

target: T8, human FcγRIIb extracellular domain, …; assay: as above

Binder	Binding to human FcgRs (parent B3 = 100)
B13	75
B15	95
B17	46

target: T9, human FcγRIIaH extracellular domain, …; assay: as above

Binder	Binding to human FcgRs (parent B3 = 100)
B13	54
B14	21
B15	74
B16	93
B17	37
